Here are results for two molecules from patent publication US20180094059A1.

The target in the assay is antigen- and TRAIL receptor-expressing Colo205 cells. Description: flow cytometry, Colo205 cells.

B1: scFvhu225-EHD2-scTRAIL3-… (protein)
chain: DYKDDDDKGGGGSGTEVQLVESGGGLVQPGGSLRLSCAASGFSLTNYGVHWVRQAPGKGLEWLGVIWSGGNTDYNTPFTSRFTISRDNSKNTLYLQMNSLRAEDTAVYYCARALTYYDYEFAYWGQGTTVTVSSGGGGSGGGGSGGGGSDIQLTQSPSFLSASVGDRVTITCRASQSIGTNIHWYQQKPGKAPKLLIKYASESISGVPSRFSGSGSGTEFTLTISSLQPEDFATYYCQQNNNWPTTFGAGTKLEIKRAAAGGSGGDFTPPTVKILQSSCDGGGHFPPTIQLLCLVSGYTPGTINITWLEDGQVMDVDLSTASTTQEGELASTQSELTLSQKHWLSDRTYTCQVTYQGHTFEDSTKKCADSNGGSGGASSGGGPQRVAAHITGTRGRSNTLSSPNSKNEKALGRKINSWESSRSGHSFLSNLHLRNGELVIHEKGFYYIYSQTYFRFQEEIKENTKNDKQMVQYIYKYTSYPDPILLMKSARNSCWSKDAEYGLYSIYQGGIFELKENDRIFVSVTNEHLIDMDHEASFFGAFLVGGGPQRVAAHITGTRGRSNTLSSPNSKNEKALGRKINSWESSRSGHSFLSNLHLRNGELVIHEKGFYYIYSQTYFRFQEEIKENTKNDKQMVQYIYKYTSYPDPILLMKSARNSCWSKDAEYGLYSIYQGGIFELKENDRIFVSVTNEHLIDMDHEASFFGAFLVGGGPQRVAAHITGTRGRSNTLSSPNSKNEKALGRKINSWESSRSGHSFLSNLHLRNGELVIHEKGFYYIYSQTYFRFQEEIKENTKNDKQMVQYIYKYTSYPDPILLMKSARNSCWSKDAEYGLYSIYQGGIFELKENDRIFVSVTNEHLIDMDHEASFFGAFLVG
B1 gave an EC50 of 0.58 nM.

B2: dsDb3M6-scTRAIL3-… (protein)
chain: DYKDDDDKGGGGSGTEVQLLESGGGLVQPGGSLRLSCAASGFTFSHYVMAWVRQAPGKCLEWVSSISSSGGWTLYADSVKGRFTISRDNSKNTLYLQMNSLRAEDTAVYYCTRGLKMATIFDYWGQGTLVTVSSGGGGSQSALTQPASVSGSPGQSITISCTGTSSDVGSYNVVSWYQQHPGKAPKLIIYEVSQRPSGVSNRFSGSKSGNTASLTISGLQTEDEADYYCSSYAGSSIFVIFGCGTKVTVLAAAGGSGGGPQRVAAHITGTRGRSNTLSSPNSKNEKALGRKINSWESSRSGHSFLSNLHLRNGELVIHEKGFYYIYSQTYFRFQEEIKENTKNDKQMVQYIYKYTSYPDPILLMKSARNSCWSKDAEYGLYSIYQGGIFELKENDRIFVSVTNEHLIDMDHEASFFGAFLVGGGPQRVAAHITGTRGRSNTLSSPNSKNEKALGRKINSWESSRSGHSFLSNLHLRNGELVIHEKGFYYIYSQTYFRFQEEIKENTKNDKQMVQYIYKYTSYPDPILLMKSARNSCWSKDAEYGLYSIYQGGIFELKENDRIFVSVTNEHLIDMDHEASFFGAFLVGGGPQRVAAHITGTRGRSNTLSSPNSKNEKALGRKINSWESSRSGHSFLSNLHLRNGELVIHEKGFYYIYSQTYFRFQEEIKENTKNDKQMVQYIYKYTSYPDPILLMKSARNSCWSKDAEYGLYSIYQGGIFELKENDRIFVSVTNEHLIDMDHEASFFGAFLVG
B2 displayed an EC50 of 32.5 nM. This EC50 lies about 56-fold higher than the previous one.
